Here are results for eight molecules from US20210060157A1 (published 2021).

The target in one assay is T1, peptide 420 (human).
T1 peptide: DGRQLEWGLERTRLSS
The assay can be described thus: alanine scan on selected peptides (peptide array). The procedure:
Subsequently, an alanine scan (in which alanine is used to replace amino acids one by one) on selected peptides was performed to help pinpoint the epitope.

Assay [1] has as its target T2, human complement component C6 (human, UniProt P13671 22-934).
T2 construct: Protein was purified from human serum (113 kDa); biotinylated in the Fab ELISAs; also called human C6; hC6
The assay can be described thus: SPR, Biacore 2000. The procedure: (§1) Binding Kinetics: To investigate kinetics of 7E5 binding to C6, surface plasmon resonance measurement in a BIACORE 2000 (GE Healthcare) equipped with a research-grade CM5 sensor chip was used. The ligand (C6, 113 kDa) was immobilized using amine-coupling chemistry. The surface of flow cell two was activated for 7 minutes with a 1:1 mixture of 0.1 M NHS (N-hydroxysuccinimide) and 0.4 M EDC (3-(N,N-dimethylamino) propyl-N-ethylcarbodiimide) at a flow rate of 5 μl/min. The ligand at a concentration of 10 μg/ml in 10 mM sodium acetate, pH 5.0, was immobilized at a density of 955 RU. The surface was blocked with a 7 minute injection of 1 M ethanolamine, pH 8.0.
(§2) To collect kinetic binding data, the analytes (anti C6-antibodies, 150 kDa) in 10 mM HEPES, 150 mM NaCl, 0.005% P20, pH 7.4, were injected over the two flow cells at a flow rate of 30 μl/min and at a temperature of 25° C. The injected concentrations differ per antibody. Data were collected at a rate of 1 Hz. The complex was allowed to associate and dissociate for 90 and 300 seconds, respectively. The surfaces were regenerated with a 10 second injection of 0.1 M HCl. Duplicate injections (in random order) of each sample and a buffer blank were flowed over the two surfaces.
(§3) The data were fit to a simple 1:1 interaction model using the global data analysis option available within BiaEvaluation 4.1 software.
On the technique in general: SPR reads the build-up and loss of mass on a sensor chip optically.

The target in assay [2] is T2, human complement component C6. The assay can be described thus: SPR, Biacore 2000, derived from kd. The method, then: as §1, §2, §3
The target is the same in assay [3]. The assay can be described thus: SPR, Biacore 2000, C6 amine-coupled to CM5 chip, antibody as analyte, 25 C, 1:1 model. The method, then: as §1, §2, §3
For another assay, the target named is T3, peptide 418 (human).
T3 construct: Synthesized and spotted on a membrane (peptide array)
T3 peptide: GSCQDGRQLEWGLERT
The assay can be described thus: peptide array of overlapping 16mer C6 peptides on a membrane. The method, then: Peptide arrays were used to determine the epitope of 7E5 in human C6. Consecutive overlapping 16mer peptides (peptides 16 amino acids long, overlapping 14 amino acids) from the C6 protein sequence were synthesized and spotted in a grid pattern on a membrane. The membrane was then incubated with 7E5 antibody to detect which peptide was recognized by the antibody.

Assay [4] deals with T2, human complement component C6. The assay can be described thus: ELISA on biotinylated hC6 and Biacore 3000 off-rate screening of periplasmic extracts on immobilized hC6. In general terms: ELISA stands for enzyme-linked immunosorbent assay.

Several values for one entry are separate records, joined by “and”; a condition that tells them apart may be missing. Identical values can stand only once.

T2 sequence (P13671 22-934 limits assumed): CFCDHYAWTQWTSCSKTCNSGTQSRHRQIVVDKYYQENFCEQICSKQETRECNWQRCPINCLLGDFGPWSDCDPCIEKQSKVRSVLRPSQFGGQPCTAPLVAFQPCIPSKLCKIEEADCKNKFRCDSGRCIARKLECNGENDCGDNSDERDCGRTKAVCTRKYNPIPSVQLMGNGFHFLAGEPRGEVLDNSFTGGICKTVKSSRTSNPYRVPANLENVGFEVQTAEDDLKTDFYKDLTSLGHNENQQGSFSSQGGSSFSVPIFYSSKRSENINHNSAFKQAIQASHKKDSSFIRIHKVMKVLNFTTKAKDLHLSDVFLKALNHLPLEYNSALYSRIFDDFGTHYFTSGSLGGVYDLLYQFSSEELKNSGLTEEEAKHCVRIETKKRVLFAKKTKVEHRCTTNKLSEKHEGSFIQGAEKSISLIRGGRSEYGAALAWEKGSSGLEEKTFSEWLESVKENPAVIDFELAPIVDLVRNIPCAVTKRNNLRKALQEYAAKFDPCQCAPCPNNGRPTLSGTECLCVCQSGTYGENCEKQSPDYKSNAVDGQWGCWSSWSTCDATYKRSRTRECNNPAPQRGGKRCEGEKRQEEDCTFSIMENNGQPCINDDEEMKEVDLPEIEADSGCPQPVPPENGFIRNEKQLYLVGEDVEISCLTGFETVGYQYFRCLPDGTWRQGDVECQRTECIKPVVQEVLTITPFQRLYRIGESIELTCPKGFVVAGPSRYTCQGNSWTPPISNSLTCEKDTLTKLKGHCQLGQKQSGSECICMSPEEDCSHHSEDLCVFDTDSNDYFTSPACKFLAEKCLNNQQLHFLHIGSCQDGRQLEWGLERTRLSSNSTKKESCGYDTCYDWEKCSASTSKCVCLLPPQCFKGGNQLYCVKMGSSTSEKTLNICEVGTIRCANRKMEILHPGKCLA

B1: rat anti-human C6 monoclonal antibody 7E5 (antibody, V domains shown)
VH: EVQLVESDGGLVQPGGSLKLSCVASGFSFSDYYMAWVRQGPTKGLEWVATINYDGSSTYYRESVKGRFTISRDNAKRTLYLQMDSLRSEDTATYYCSRPSTEALFAYWGHGTLVTVSS
VL: DVVLTQTPSTLSATIGQSVSISCRSSQSLLNDVGNTYLYWYLQRPGQSPQLLIYLVSDLGSGVPNRFSGSGSGTDFTLKISGVEAEDLGIYYCMQASHAPYTFGAGTNLELK
notes: Whole antibody (150 kDa analyte in SPR) from a rat hybridoma; also called 7E5 mAb; supernatant #11
One may read the Kd as the equilibrium constant for the complex coming apart. The low end stands for tighter binding, the high end for weaker binding. As a reminder, the koff is the rate constant with which the complex falls apart. As usually defined, the kon is a measure of how fast the partners come together. For B1, in the assay with peptide 420, the binding result is “binds”. Moreover, in assay [1], the “half-life of the 7E5-C6 complex” value is greater than 40 h. Besides, the “t1/2 (complex half life)” value in assay [2] is 45 h and 45.1 h. In assay [3], this molecule yielded a Kd of 0.253 nM, a koff of 4.27e-06 s⁻¹ and a kon of 16900 M⁻¹ s⁻¹. The binding result with peptide 418 is “binds”.

B2: humanized 7E5 Fab 7F06 (Fab, V domains shown)
VH: EVQLVESGGGLVQPGGSLKLSCAASGFTFRDYYMAWVRQGPGKGLEWVATINYDGSSTYYRESVKGRFTISRDNAKNSLYLQMDSLRAEDTAVYYCARPSTEALFAYWGHGTLVTVSS
VL: DVVLTQTPLTLSVTPGQPVSISCRSSQSLLNDVGNTYLYWYLQKPGQSPQLLIYLVSDLGSGVPNRFSGSGSGTDFTLKISRVEAEDVGVYYCMQASHAPYTFGAGTRLELK
notes: also called 7F6
B2: in assay [4], the binding result is “binds”.

B3: humanized 7E5 Fab 7E11 (Fab, V domains shown)
VH: EVQLVESGGGLVQPGGSLRLSCVASGFTFSDYYMAWVRQAPGKGLEWVATINYDGSSTYYRESVKGRFTISRDNAKNTLYLQMDSLRAEDTAVYYCARPSTEALFAYWGQGTLVTVSS
VL: DIVLTQTPLSLSATPGQSVSISCRSSQSLLNDVGNTYLYWYLQRPGQSPQLLIYLVSDLGSGVPDRFSGSGSGTDFTLKISRVEAEDVGVYYCMQASHAPYTFGAGTNLEIK
In the case of B3, the binding result in assay [4] is listed as “binds”.

B4: humanized 7E5 Fab 7F02 (Fab, V domains shown)
VH: EVQLVESGGGLVQPGGSLKLSCAASGFTFSDYYMAWVRQGPGKGLEWVATINYDGSSTYYRESVKGRFTISRDNAKNSLYLQMNSLRSEDTAVYYCARPSTEALFAYWGHGTLVTVSS
VL: DVVMTQTPSTLSATPGQSASISCRSSQSLLNDVGNTYLYWYLQKPGQSPQLLIYLVSDLGSGVPNRFSGSGSGTDFTLKISRVEAEDVGIYYCMQASHAPYTFGAGTRLELK
notes: also called 7F2
Regarding B4, the binding result in assay [4] is recorded as “binds”.

B5: humanized 7E5 Fab 7F11 (Fab, V domains shown)
VH: EVQLVESDGGLVQPGGSLKLSCAASGFTFSDYYMAWVRQGPTKGLEWVATINYDGSSTYYRESVKGRFTISRDNAKNTLYLQMNSLRAEDTAVYYCSRPSTEALFAYWGHGTLVTVSS
VL: DVVLTQTPSTLSVTPGQPVSISCRSSQSLLNDVGNTYLYWYLQKPGQSPQLLIYLVSDLGSGVPNRFSGSGSGTDFTLKISGVEAEDVGVYYCMQASHAPYTFGAGTRLEIK
B5: in assay [4], the binding result is on record as “binds”.

B6: humanized 7E5 Fab 8F07 (Fab, V domains shown)
VH: EVQLVESGGGLVQPGGSLRLSCAASGFSFSDYYMAWVRQGPGKGLEWVATINYDGSSTYYRESVKGRFTISRDNAKNTLYLQMNSLRSEDTATYYCARPSTEALFAYWGHGTLVTVSS
VL: DVVLTQTPLTLSVTPGQSVSISCRSSQSLLNDVGNTYLYWYLQKPGQSPQLLIYLVSDLGSGVPDRFSGSGSGTDFTLKISGVEAEDVGVYYCMQASHAPYTFGAGTKLEIK
notes: also called 8F7
With B6, in assay [4], the binding result is listed as “binds”.

B7: humanized 7E5 Fab 7E12 (Fab, V domains shown)
VH: EVQLVESDGGLVQPGGSLKLSCAASGFTFSDYYMAWVRQGPGKGLEWVATINYDGSSTYYRESVKGRFTISRDNAKNTLYLQMNSLRAEDTATYYCARPSTEALFAYWGHGTLVTVSS
VL: DVVLTQTPSTLSVTPGQPASISCRSSQSLLNDVGNTYLYWYLQKPGQSPQLLIYLVSDLGSGVPNRFSGSGSGTDFTLKISRVEAEDVGIYYCMQASHAPYTFGQGTNLEIK
For B7, in assay [4], the binding result is “binds”.

B8: humanized 7E5 Fab 8G09 (Fab, V domains shown)
VH: EVQLVESDGGLVQPGGSLRLSCVASGFTFSDYYMAWVRQAPGKGLEWVATINYDGSSTYYRESVKGRFTISRDNAKRTLYLQMDSLRAEDTAVYYCARPSTEALFAYWGQGTLVTVSS
VL: DIVLTQTPLTLSVTPGQSVSISCRSSQSLLNDVGNTYLYWYLQKPGQSPQLLIYLVSDLGSGVPNRFSGSGSGTDFTLKISRVEAEDVGVYYCMQASHAPYTFGAGTRLEIK
Take B8: in assay [4], the binding result is recorded as “binds”.
